Paper PMC2739136
Positions count from the first letter of the chain named.

Assays:
Experiment in all cases: pull-down
MBP-TraR A150V, P33905 = biological target: T1, MBP-TraR A150V, P33905
T1 chain: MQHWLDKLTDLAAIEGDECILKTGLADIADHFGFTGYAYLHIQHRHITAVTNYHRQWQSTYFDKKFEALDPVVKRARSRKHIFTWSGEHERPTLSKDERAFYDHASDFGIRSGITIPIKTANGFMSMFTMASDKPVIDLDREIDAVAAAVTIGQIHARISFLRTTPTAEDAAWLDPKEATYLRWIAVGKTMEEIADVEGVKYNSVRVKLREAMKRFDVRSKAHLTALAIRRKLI

MBP-TraR N122A, P33905 = biological target: MBP-TraR N122A, P33905
MBP-TraR A157V, P33905 = biological target: T2, MBP-TraR A157V, P33905
T2 chain: T1 chain with V150A, A157V

MBP-TraR Q154A, P33905 = biological target: T3, MBP-TraR Q154A, P33905
T3 chain: T1 chain with V150A, Q154A

MBP-TraR I229Y, P33905 = biological target: T4, MBP-TraR I229Y, P33905
T4 chain: T1 chain with V150A, I229Y

MBP-TraR V146A, P33905 = biological target: T5, MBP-TraR V146A, P33905
T5 chain: T1 chain with V146A, V150A

MBP-TraR I155F, P33905 = biological target: T6, MBP-TraR I155F, P33905
T6 chain: T1 chain with V150A, I155F

MBP-TraR V146E, P33905 = biological target: T7, MBP-TraR V146E, P33905
T7 chain: T1 chain with V146E, V150A

B1: native TraR (wild type) (protein)
chain: T1 chain with V150A
B1 showed a heterodimer formation (% of wild type) (% of wild type) (MBP-TraR A150V, P33905) of 15, a heterodimer formation (% of wild type) (% of wild type) (MBP-TraR N122A, P33905) of 28 and a heterodimer formation (% of wild type) (% of wild type) (MBP-TraR A157V, P33905) of 50. It also gave a heterodimer formation (% of wild type) (% of wild type) (MBP-TraR Q154A, P33905) of 27, a heterodimer formation (% of wild type) (% of wild type) (MBP-TraR I229Y, P33905) of 23 and a heterodimer formation (% of wild type) (% of wild type) (MBP-TraR V146A, P33905) of 61. It also gave a heterodimer formation (% of wild type) (% of wild type) (MBP-TraR I155F, P33905) of 50 and a heterodimer formation (% of wild type) (% of wild type) (MBP-TraR V146E, P33905) of 52.
